According to patent US20240182571A1 (OSE IMMUNOTHERAPEUTICS, published 2024):

How the values were obtained:
[1] = molecular target: T1, Recombinant hPD1 (Sino Biologicals, reference 10377-H08H) (human, UniProt Q15116 25-167); assay: ELISA, recombinant human PD-1 immobilised, anti-human Fc peroxidase
T1 construct: Bought reagent, immobilised on plastic; also called Human recombinant PD-1; rPD1
Procedure: (§1) A. PD-1 binding ELISA assay. Human recombinant PD-1 (rPD1) protein was immobilized, and antibodies were added at different concentrations. Revelation was performed with an anti-human Fc antibody coupled to peroxidase. Colorimetry was determined at 450 nm using TMB substrate. […] All constructions tested comprise a […] linker between the Fc and IL-7 domain.
For activity ELISA assay, recombinant hPD1 (Sino Biologicals, Beijing, China; reference 10377-H08H) was immobilized on plastic at 0.5 μg/ml in carbonate buffer (pH9.2) and purified antibody were added to measure binding.

PD-1 expressed on cells [2] = molecular target: T2, PD-1 expressed on cells (UniProt Q15116 25-288); assay: flow cytometry (FACs analysis), U937 PD-1+ CD127+ cells co-cultured with U937 PD-1- CD127+ cells, detection with anti-human IgG PE, % cell binding
T2 construct: whole, on cells; also called U937 PD-1+ cells; U937 PD-1+ CD127+ cells
Procedure: (§2) U937 cells expressing CD127+ or co-expressing CD127+ and PD-1+ cells were stained with a cell proliferation dye (CPDe450 or CPDe670) and co-cultivated at ratio 1:1 prior incubation with different concentrations of anti PD-1 IL-7 bifunctional molecules. Staining with and anti-human IgG PE and pSTAT5 activation was quantified after incubation by flow cytometry. A. EC50 binding (nM) was calculated for each cell type and each construction. B. EC50 pSTAT5 (nM) was calculated for each cell type and each construction.
(§3) Finally, the specific cis-targeting and cis-activity of the different anti PD-1 IL-7 constructions were analyzed in a co-culture assay. U937 PD-1+ CD127+ cells were mixed with PD-1− CD127+ cells (ratio 1:1), then incubated with the different constructions at escalating doses. The binding and the IL-7R signaling (pSTAT5) was quantified by flow cytometry. EC50 (nM) of the binding and the pSTAT5 activation was determined for each construction and for each PD-1+ and PD-1− cell population (FIG. 4A and B).
(§4) U937 transduced with CD127 and PD-1 were mixed with U937 transduced with CD127+ only.

PD-1 expressed on cells [3] = molecular target: T2, PD-1 expressed on cells; assay: flow cytometry, 1:1 co-culture of U937 PD-1+ and U937 PD-1- cells, detection with anti-human IgG PE, % positive cells [middle panel]
PD-1 expressed on cells [4] = molecular target: T2, PD-1 expressed on cells; assay: flow cytometry (FACs analysis), U937 PD-1+ CD127+ cells co-cultured with U937 PD-1- CD127+ cells, detection with anti-human IgG PE, % cell binding; remark: listed apart in the source
Procedure: as §2, §3, §4

PD-1 expressed on cells [5] = molecular target: T2, PD-1 expressed on cells; assay: flow cytometry, 1:1 co-culture of U937 PD-1+ and U937 PD-1- cells, detection with anti-human IgG PE, % positive cells
[6] = molecular target: T3, biotinylated Human PD1 (AcroBiosystems, reference EP-101) (human, UniProt Q15116 25-167, limits assumed, biotinylated); assay: competitive ELISA, PD-L1 immobilised, antibody mixed with biotinylated human PD-1; PD1/PDL1 antagonist activity
T3 construct: also called biotinylated recombinant human PD-1; Biotin-PD-1Fc
Procedure: as §1
Purified antibody (at different concentrations) were mixed with 0.66 μg/ml final (fix concentration) of biotinylated Human PD1 (AcroBiosystems; USA; reference EP-101) to measure competitive binding for 2 h at 37° C.

T2 sequence (Q15116 25-288): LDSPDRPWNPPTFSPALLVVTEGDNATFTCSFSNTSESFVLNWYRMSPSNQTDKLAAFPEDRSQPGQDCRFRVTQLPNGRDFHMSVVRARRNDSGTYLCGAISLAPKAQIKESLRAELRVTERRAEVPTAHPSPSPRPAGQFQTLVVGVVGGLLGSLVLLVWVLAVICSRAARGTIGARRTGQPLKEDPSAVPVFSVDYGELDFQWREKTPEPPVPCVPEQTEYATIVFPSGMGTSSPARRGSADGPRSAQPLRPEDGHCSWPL
T1 sequence (Q15116 25-167 limits assumed): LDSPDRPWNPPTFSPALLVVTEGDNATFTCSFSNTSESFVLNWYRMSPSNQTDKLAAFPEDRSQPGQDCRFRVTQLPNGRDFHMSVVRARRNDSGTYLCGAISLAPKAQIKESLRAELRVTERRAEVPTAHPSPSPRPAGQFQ
T3 sequence (Q15116 25-167 limits assumed): as above

B1: anti PD-1*2 (antibody, human IgG4 S228P, kappa, V domains shown)
VH: QIQLVQSGSELKKPGASVKVSCKASGYTFTHYAMNWVRQAPGQGLEWMGWINTNTGEPTYAQGFTGRFVFSLDTSVSTAYLQISSLKAEDTAVYYCAREREPGMDNWGQGTLVTVSS
VL: DVVMTQSPLSLPVTLGQPASISCRSSQSLVHANTNTYLEWYQQRPGQSPRLLIYKVSNRFSGVPDRFSGSGSGTDFTLKISRVEAEDVGVYYCFQGTHVPNTFGQGTKLEIKR
notes: Anti PD-1 antibody with 2 anti PD-1 arms and no cytokine; also called anti PD-1 alone; anti PD-1 control
- EC50 [1]: 0.021 nM
- EC50 (read off the curve) (PD-1 expressed on cells [2]): ~0.02 nM
- EC50 (read off the curve) (PD-1 expressed on cells [3]): ~0.005 nM
- EC50 (read off the curve) (PD-1 expressed on cells [4]): ~0.02 nM

B2: anti PD-1*1 (antibody, human IgG1, kappa, N297A)
chain: DKTHTCPPCPAPELLGGPSVFLFPPKPKDTLMISRTPEVTCVVVDVSHEDPEVKFNWYVDGVEVHNAKTKPREEQYASTYRVVSVLTVLHQDWLNGKEYKCKVSNKALPAPIEKTISKAKGQPREPQVYTLPPCRDELTKNQVSLWCLVKGFYPSDIAVEWESNGQPENNYKTTPPVLDSDGSFFLYSKLTVDKSRWQQGNVFSCSVMHEALHNHYTQKSLSLSPGK
heavy: not shown
light: DVVMTQSPLSLPVTLGQPASISCRSSQSLVHANTNTYLEWYQQRPGQSPRLLIYKVSNRFSGVPDRFSGSGSGTDFTLKISRVEAEDVGVYYCFQGTHVPNTFGQGTKLEIKRTVAAPSVFIFPPSDEQLKSGTASVVCLLNNFYPREAKVQWKVDNALQSGNSQESVTEQDSKDSTYSLSSTLTLSKADYEKHKVYACEVTHQGLSSPVTKSFNRGEC
notes: One-armed control: like construction 3 but without IL-7; Chain A is the Fc chain (knob), chain B the anti PD-1 heavy chain (hole)
- EC50 [1]: 0.238 nM
- EC50 (read off the curve) (PD-1 expressed on cells [5]): ~0.02 nM
- EC50 [6]: 5.01 nM
